One substance from patent publication US20100221257A1 can be followed below.

The term Kd denotes the constant that tells how readily two partners part at equilibrium. High values mean a looser complex, low ones a tighter complex.

Test [1] addresses Human sIL-1R1 (R&D Systems), un-tagged (human) (UniProt P14778). Briefly: KinExA, IgG equilibrated in solution with un-tagged sIL-1R1; free IgG captured on IL-1R1 beads.
The target of test [2] is human IL-1R1, endogenous on human cells (HeLa cells; whole blood) (human) (UniProt P14778). The test is described as follows: cell-based or functional assay.
Sequence of human IL-1R1, endogenous on human cells (HeLa cells; whole blood) (human) (P14778 18-569): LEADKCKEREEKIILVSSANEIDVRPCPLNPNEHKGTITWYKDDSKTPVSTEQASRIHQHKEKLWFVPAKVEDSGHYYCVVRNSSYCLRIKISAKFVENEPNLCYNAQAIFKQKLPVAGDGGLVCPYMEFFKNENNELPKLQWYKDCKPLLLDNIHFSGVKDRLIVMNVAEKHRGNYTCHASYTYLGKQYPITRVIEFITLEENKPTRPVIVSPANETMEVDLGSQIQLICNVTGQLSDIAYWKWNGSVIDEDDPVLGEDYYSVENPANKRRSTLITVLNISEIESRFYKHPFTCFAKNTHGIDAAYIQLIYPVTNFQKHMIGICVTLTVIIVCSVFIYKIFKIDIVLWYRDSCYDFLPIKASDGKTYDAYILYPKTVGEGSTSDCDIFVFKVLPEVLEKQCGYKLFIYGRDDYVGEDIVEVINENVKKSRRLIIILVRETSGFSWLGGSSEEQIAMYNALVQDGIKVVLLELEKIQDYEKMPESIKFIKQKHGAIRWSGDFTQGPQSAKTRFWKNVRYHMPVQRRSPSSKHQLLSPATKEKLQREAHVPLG

Sequence of Human sIL-1R1 (R&D Systems), un-tagged (human) (P14778 18-332 limits assumed): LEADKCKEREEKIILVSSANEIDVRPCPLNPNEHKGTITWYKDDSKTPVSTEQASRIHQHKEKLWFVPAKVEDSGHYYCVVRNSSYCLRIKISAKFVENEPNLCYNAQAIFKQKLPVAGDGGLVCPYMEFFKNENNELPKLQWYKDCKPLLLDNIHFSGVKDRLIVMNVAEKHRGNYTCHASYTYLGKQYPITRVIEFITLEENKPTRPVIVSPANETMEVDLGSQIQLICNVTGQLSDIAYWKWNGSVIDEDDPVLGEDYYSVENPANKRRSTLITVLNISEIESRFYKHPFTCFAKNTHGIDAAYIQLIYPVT

AMG108 IgG2 (antibody) displayed a Kd in test [1] of 4.12 pM. In test [2], this substance displayed an IC50, inhibition of IL-1 alpha induced IL-8 release in HeLa cells (N = 3) of 11.7 pM; an IC50, inhibition of IL-1 beta induced IL-8 release in HeLa cells (run with the GL IgG2 set, N = 5-6) of 5.9 pM; an IC50, inhibition of IL-1 beta induced IL-8 release in HeLa cells (run with the IgG1 set, N = 6-7) of 5.3 pM; an IC50, inhibition of human IL-1β induced IL-8 release from HeLa cells of 9 pM.
